Test results as given in the supplement of paper PMC9112550, “Optimization of the antimicrobial peptide Bac7 by deep mutational scanning” (BMC Biology, 2022).

Each sequence was assayed on Escherichia coli TOP10 (assay: shrunken log2 fold change of peptide-encoding DNA abundance (4.5 h post-induction vs induction); higher = less antimicrobial activity (less host growth inhibition)). Conditions: time post-induction: 4.5 h; library: site-saturation at positions 5, 18, 19, 20.
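Further: peptides expressed intracellularly from a pBAD plasmid library in pooled LB shake-flask culture, induced with 0.3% L-arabinose, DNA abundance read by NGS, three biological replicates, DESeq2 with apeglm shrinkage.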

RRIRARPPRLPRPRPRPRWQPRP was tested. Which “shrunken log2 fold change” value did it give?
Its value is 0.361.

With RRIRARPPRLPRPRPRPSAAPRP as the sequence, how does the “shrunken log2 fold change” value read?
The value was 0.848.

Which “shrunken log2 fold change” value does the source give for RRIRARPPRLPRPRPRPSAQPRP here?
The value was 0.96.

Which “shrunken log2 fold change” value does the source give for RRIRARPPRLPRPRPRPSARPRP here?
The value was 0.479.

How did the “shrunken log2 fold change” value turn out when RRIRARPPRLPRPRPRPSASPRP was run?
The value was 0.167.

How did the “shrunken log2 fold change” value turn out when RRIRARPPRLPRPRPRPSEEPRP was run?
Its value is 0.452.

For RRIRARPPRLPRPRPRPSEQPRP, which “shrunken log2 fold change” value is on record?
Its value is 0.248.

With RRIRARPPRLPRPRPRPSFFPRP as the sequence, how does the “shrunken log2 fold change” value read?
The value was 0.238.

RRIRARPPRLPRPRPRPSKFPRP was tested. Which “shrunken log2 fold change” value did it give?
Its value is -0.163.

For RRIRARPPRLPRPRPRPSLHPRP, which “shrunken log2 fold change” value is on record?
Its value is 0.162.

RRIRARPPRLPRPRPRPSLMPRP was tested. Which “shrunken log2 fold change” value did it give?
Its value is 0.0307.

With RRIRARPPRLPRPRPRPSMNPRP as the sequence, how does the “shrunken log2 fold change” value read?
The value was -0.032.

With RRIRARPPRLPRPRPRPSMSPRP as the sequence, how does the “shrunken log2 fold change” value read?
Its value is -0.105.

How did the “shrunken log2 fold change” value turn out when RRIRARPPRLPRPRPRPSNEPRP was run?
The value was 0.167.

RRIRARPPRLPRPRPRPSPRPRP was tested. Which “shrunken log2 fold change” value did it give?
Its value is 0.818.

With RRIRARPPRLPRPRPRPSQDPRP as the sequence, how does the “shrunken log2 fold change” value read?
The value was 0.196.

How did the “shrunken log2 fold change” value turn out when RRIRARPPRLPRPRPRPSRFPRP was run?
The value was 0.125.

With RRIRARPPRLPRPRPRPSSEPRP as the sequence, how does the “shrunken log2 fold change” value read?
Its value is 0.271.

For RRIRARPPRLPRPRPRPSTAPRP, which “shrunken log2 fold change” value is on record?
Its value is 0.482.

Which “shrunken log2 fold change” value does the source give for RRIRARPPRLPRPRPRPSTIPRP here?
The value was -0.273.

For RRIRARPPRLPRPRPRPSTTPRP, which “shrunken log2 fold change” value is on record?
The value was 0.363.

For RRIRARPPRLPRPRPRPSTYPRP, which “shrunken log2 fold change” value is on record?
Its value is -0.356.

Which “shrunken log2 fold change” value does the source give for RRIRARPPRLPRPRPRPSVHPRP here?
Its value is -0.0906.

For RRIRARPPRLPRPRPRPSWLPRP, which “shrunken log2 fold change” value is on record?
The value was 0.0254.

With RRIRARPPRLPRPRPRPSYIPRP as the sequence, how does the “shrunken log2 fold change” value read?
Its value is -0.647.

How did the “shrunken log2 fold change” value turn out when RRIRARPPRLPRPRPRPSYYPRP was run?
Its value is -0.731.

Which “shrunken log2 fold change” value does the source give for RRIRARPPRLPRPRPRPTCDPRP here?
The value was 0.534.

RRIRARPPRLPRPRPRPTCFPRP was tested. Which “shrunken log2 fold change” value did it give?
The value was 0.57.

Which “shrunken log2 fold change” value does the source give for RRIRARPPRLPRPRPRPTCKPRP here?
The value was 0.0463.

Which “shrunken log2 fold change” value does the source give for RRIRARPPRLPRPRPRPTDAPRP here?
The value was 0.607.

Which “shrunken log2 fold change” value does the source give for RRIRARPPRLPRPRPRPTDGPRP here?
Its value is 0.0971.

How did the “shrunken log2 fold change” value turn out when RRIRARPPRLPRPRPRPTDRPRP was run?
The value was 0.0653.

Which “shrunken log2 fold change” value does the source give for RRIRARPPRLPRPRPRPTENPRP here?
Its value is 0.381.

Which “shrunken log2 fold change” value does the source give for RRIRARPPRLPRPRPRPTERPRP here?
The value was 0.502.

With RRIRARPPRLPRPRPRPTGWPRP as the sequence, how does the “shrunken log2 fold change” value read?
Its value is 0.756.

Which “shrunken log2 fold change” value does the source give for RRIRARPPRLPRPRPRPTHGPRP here?
Its value is 0.644.

For RRIRARPPRLPRPRPRPTKHPRP, which “shrunken log2 fold change” value is on record?
Its value is 0.217.

With RRIRARPPRLPRPRPRPTMQPRP as the sequence, how does the “shrunken log2 fold change” value read?
The value was 0.418.

Which “shrunken log2 fold change” value does the source give for RRIRARPPRLPRPRPRPTMWPRP here?
The value was 0.516.

Which “shrunken log2 fold change” value does the source give for RRIRARPPRLPRPRPRPTNCPRP here?
Its value is 0.269.

How did the “shrunken log2 fold change” value turn out when RRIRARPPRLPRPRPRPTQNPRP was run?
Its value is 1.05.

For RRIRARPPRLPRPRPRPTRTPRP, which “shrunken log2 fold change” value is on record?
The value was 0.653.

For RRIRARPPRLPRPRPRPTSCPRP, which “shrunken log2 fold change” value is on record?
The value was -0.15.

RRIRARPPRLPRPRPRPTSPPRP was tested. Which “shrunken log2 fold change” value did it give?
The value was 0.292.

With RRIRARPPRLPRPRPRPTTGPRP as the sequence, how does the “shrunken log2 fold change” value read?
The value was 0.331.

Which “shrunken log2 fold change” value does the source give for RRIRARPPRLPRPRPRPTTKPRP here?
Its value is 0.541.

How did the “shrunken log2 fold change” value turn out when RRIRARPPRLPRPRPRPTTYPRP was run?
The value was -0.0877.

Which “shrunken log2 fold change” value does the source give for RRIRARPPRLPRPRPRPTWHPRP here?
The value was 0.419.

With RRIRARPPRLPRPRPRPVCGPRP as the sequence, how does the “shrunken log2 fold change” value read?
Its value is 0.653.

RRIRARPPRLPRPRPRPVECPRP was tested. Which “shrunken log2 fold change” value did it give?
The value was 0.0527.

Which “shrunken log2 fold change” value does the source give for RRIRARPPRLPRPRPRPVEGPRP here?
Its value is 0.329.

For RRIRARPPRLPRPRPRPVGCPRP, which “shrunken log2 fold change” value is on record?
The value was 0.768.

For RRIRARPPRLPRPRPRPVGIPRP, which “shrunken log2 fold change” value is on record?
Its value is -0.102.

How did the “shrunken log2 fold change” value turn out when RRIRARPPRLPRPRPRPVHCPRP was run?
Its value is 0.0301.

RRIRARPPRLPRPRPRPVKFPRP was tested. Which “shrunken log2 fold change” value did it give?
Its value is -0.0699.

For RRIRARPPRLPRPRPRPVNAPRP, which “shrunken log2 fold change” value is on record?
The value was -0.0521.

For RRIRARPPRLPRPRPRPVNCPRP, which “shrunken log2 fold change” value is on record?
Its value is 1.04.

With RRIRARPPRLPRPRPRPVNYPRP as the sequence, how does the “shrunken log2 fold change” value read?
Its value is -0.476.

Which “shrunken log2 fold change” value does the source give for RRIRARPPRLPRPRPRPVPLPRP here?
Its value is 0.263.

How did the “shrunken log2 fold change” value turn out when RRIRARPPRLPRPRPRPVPQPRP was run?
Its value is 0.271.

Which “shrunken log2 fold change” value does the source give for RRIRARPPRLPRPRPRPVPYPRP here?
The value was -0.0718.

With RRIRARPPRLPRPRPRPVQWPRP as the sequence, how does the “shrunken log2 fold change” value read?
The value was 0.546.

Which “shrunken log2 fold change” value does the source give for RRIRARPPRLPRPRPRPVSHPRP here?
Its value is 0.101.

How did the “shrunken log2 fold change” value turn out when RRIRARPPRLPRPRPRPVSSPRP was run?
Its value is 0.155.

How did the “shrunken log2 fold change” value turn out when RRIRARPPRLPRPRPRPVVKPRP was run?
The value was 0.298.

RRIRARPPRLPRPRPRPVVMPRP was tested. Which “shrunken log2 fold change” value did it give?
The value was 0.282.

How did the “shrunken log2 fold change” value turn out when RRIRARPPRLPRPRPRPVWPPRP was run?
Its value is 0.623.

With RRIRARPPRLPRPRPRPVWSPRP as the sequence, how does the “shrunken log2 fold change” value read?
Its value is 0.197.

Which “shrunken log2 fold change” value does the source give for RRIRARPPRLPRPRPRPVYPPRP here?
Its value is 0.0412.

With RRIRARPPRLPRPRPRPWAFPRP as the sequence, how does the “shrunken log2 fold change” value read?
The value was 0.222.

With RRIRARPPRLPRPRPRPWCVPRP as the sequence, how does the “shrunken log2 fold change” value read?
The value was 0.201.

With RRIRARPPRLPRPRPRPWDFPRP as the sequence, how does the “shrunken log2 fold change” value read?
The value was -0.00352.

RRIRARPPRLPRPRPRPWDLPRP was tested. Which “shrunken log2 fold change” value did it give?
Its value is 0.612.

RRIRARPPRLPRPRPRPWDSPRP was tested. Which “shrunken log2 fold change” value did it give?
Its value is -0.277.

With RRIRARPPRLPRPRPRPWDYPRP as the sequence, how does the “shrunken log2 fold change” value read?
The value was 0.00145.
